# Laboratory results: US7067474B1, “Agents for treating human illnesses based on β-catenin, and the production and use thereof” (Max-Delbruck-Centrum fur Molekulare Medizin, priority 1998, dated 2006)
# Substitutions are numbered along the chain they refer to.
# T1: human β-catenin (Leu218-Leu781) mutant Trp 338 to alanine, Gal-4 activation domain fusion (human, UniProt P35222 218-781)
# T1 sequence: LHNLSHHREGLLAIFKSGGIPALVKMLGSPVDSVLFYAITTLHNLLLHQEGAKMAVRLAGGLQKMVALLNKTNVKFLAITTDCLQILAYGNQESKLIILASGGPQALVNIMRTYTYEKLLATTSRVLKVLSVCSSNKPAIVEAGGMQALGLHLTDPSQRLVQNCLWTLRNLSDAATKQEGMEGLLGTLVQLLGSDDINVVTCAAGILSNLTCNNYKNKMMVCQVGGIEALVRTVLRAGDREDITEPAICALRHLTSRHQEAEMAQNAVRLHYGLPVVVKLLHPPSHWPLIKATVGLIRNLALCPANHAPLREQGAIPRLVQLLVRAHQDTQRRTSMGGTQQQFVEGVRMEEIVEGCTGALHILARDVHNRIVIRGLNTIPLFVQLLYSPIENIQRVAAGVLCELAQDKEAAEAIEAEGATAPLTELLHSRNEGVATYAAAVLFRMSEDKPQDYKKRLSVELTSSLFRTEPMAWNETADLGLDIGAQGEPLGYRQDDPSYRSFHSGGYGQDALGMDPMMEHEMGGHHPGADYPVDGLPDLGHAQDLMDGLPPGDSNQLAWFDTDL
# T2: human β-catenin (Leu218-Leu781) mutant Lys 435 to alanine, Gal-4 activation domain fusion (human, UniProt P35222 218-781)
# T2 sequence: T1 sequence with A121W, K218A
# B1: LEF-1 amino acids 1-99 fused to Lex-A (vector BTM 116) (other, UniProt P0A7C2 1-202, looked up)
# chain: MKALTARQQEVFDLIRDHISQTGMPPTRAEIAQRLGFRSPNAAEEHLKALARKGVIEIVSGASRGIRLLQEEEEGLPLVGRVAAGEPLLAQQHIEGHYQVDPSLFKPNADFLLRVSGMSMKDIGIMDGDLLAVHKTQDVRNGQVVVARIDDEVTVKRLKKQGNKVELLPENSEFKPIVVDLRQQSFTIEGLAVGVIRNGDWLMPQLSGGGGGGDPELCATDEMIPFKDEGDPQKEKIFAEISHPEEEGDLADIKSSLVNESEIIPASNGHEVVRQAPSSQEPYHDKAREHPDEGKHPDGGL
# notes: Order of the fusion follows the vector; also called LEF-1/TCF-4
# Key:
# [1] = biological target: T1, human β-catenin (Leu218-Leu781) mutant …; assay: yeast 2-hybrid; - means 60-100% of the wild type interaction
# [2] = biological target: T2, human β-catenin (Leu218-Leu781) mutant …; assay: as above
binder,measurement,setting,value
B1,binding result,[1],binds
same,binding result,[2],binds
